Reference: patent US8012695B2, “Methods and compositions relating to promoter regulation by MUC1 and KLF proteins” (Dana-Farber Cancer Institute, Inc., priority 2007, dated 2011)
Ends that are not written are not given here.

B1: MUC1-CD(1-72): GST fusion of the MUC1 cytoplasmic domain, amino acids 1-72 (SEQ ID NO:2) (protein)
chain: CQCRRKNYGQLDIFPARDTYHPMSEYPTYHTHGRYVPPSSTDRSPYEKVSAGNGGSSLSYTNPAVAAASANL
modifications: left off: a dimerising Fc or GST
B2: MUC1-CD: MUC1 cytoplasmic domain expressed in cells by transfection of the pCMV-MUC1-CD vector (protein, listed as Homo sapiens)
chain: B1 chain

Assays:
[1] = biological target: T1, KLF4 (Homo sapiens, UniProt O43474); test: GST pull-down assay with 35S-labeled KLF4; type: binding; conditions: adsorbates to glutathione beads, 2 h at 4° C., autoradiography
T1 construct: host or cells: rabbit reticulocyte lysate, cell-free transcription/translation
T1 sequence (O43474 10-513 limits assumed): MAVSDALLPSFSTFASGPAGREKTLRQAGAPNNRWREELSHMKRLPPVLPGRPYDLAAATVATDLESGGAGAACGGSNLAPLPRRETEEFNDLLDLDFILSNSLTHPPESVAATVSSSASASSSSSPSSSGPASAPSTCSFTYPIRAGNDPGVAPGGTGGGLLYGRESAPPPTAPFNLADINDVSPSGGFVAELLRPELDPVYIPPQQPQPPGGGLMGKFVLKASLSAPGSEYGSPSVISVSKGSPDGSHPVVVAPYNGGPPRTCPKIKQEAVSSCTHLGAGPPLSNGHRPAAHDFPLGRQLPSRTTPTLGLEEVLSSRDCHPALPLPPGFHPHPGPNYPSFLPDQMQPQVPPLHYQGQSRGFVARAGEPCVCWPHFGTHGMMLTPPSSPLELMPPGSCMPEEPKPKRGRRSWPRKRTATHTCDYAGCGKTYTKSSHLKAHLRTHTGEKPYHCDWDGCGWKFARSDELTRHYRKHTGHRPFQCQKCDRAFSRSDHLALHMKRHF
Experimental: FIG. 3D is a pair of photographs of (a) an autoradiogram and (b) a Coomassie blue stained polyacrylamide gel. GST, GST-MUC1-CD(1-72), GST-MUC1-CD(47-72), or GST-MUC1-CD(1-46) were bound to glutathione-conjugated agarose beads and incubated with [^35S]-labeled KLF4 protein. The beads were washed to remove unbound KLF4 protein. The remaining adsorbates were analyzed by SDS-PAGE and autoradiography (top photograph). Input KLF4 protein is shown in the first lane of the top photograph. Input of the GST and GST-MUC1-CD fusion proteins was assessed by Coomassie blue staining. The molecular weights of the proteins (expressed in kilodaltons (kDa)) are indicated at the left of each of the photographs.
GST pull-down assays. GST and GST fusion proteins were purified by binding to glutathione-agarose beads (Sigma). ^35S-labeled KLF4, prepared in rabbit reticulocyte lysate transcription/translation (TNT) reactions (Promega Corporation), was incubated with GST or the GST fusion proteins for 2 h at 4° C. After washing, the adsorbed proteins were resolved by SDS-PAGE and analyzed by autoradiography.
To determine if MUC1-C occupies the PE21 region with KLF4, Re-ChIP assays were performed using anti-MUC1-C and anti-KLF4 antibodies. […] Moreover, DNA damage had little if any effect on this interaction (FIG. 7B). […]

[2] = system: ZR-75-1 breast cancer cells; test: Immunoblot analysis of p53 in ZR-75-1 cells; type: cell-based, human; conditions: ZR-75-1/MUC1siRNA cells transfected with pCMV-MUC1-CD, 24 hours
Experimental: Cell culture. […] Human ZR-75-1 breast cancer cells and those stably infected with a control siRNA (ZR-75-1/CsiRNA) or one expressing a MUC1siRNA (ZR-75-1/MUC1siRNA) (Wei et al. (2006) Mol. Cell. 21: 295-305) were cultured in RPMI 1640 medium supplemented with 10% HI-FBS, 100 μg/ml streptomycin, 100 units/ml penicillin, and 2 mM L-glutamine.
Immunoblotting. […] Immunoblot analysis was performed with anti-p53 (Ab-2, Ab-6; Oncogene Research Products), anti-MUC1-C (Ab-5; Neomarkers, Freemont, Calif.), anti-KLF4 (H-180; Santa Cruz Biotechnology), anti-β-actin (Sigma), anti-IκBα (Santa Cruz Biotechnology), or anti-PCNA (F-2; Santa Cruz Biotechnology) antibodies. Whole cell lysates were also, prior to analysis by immunoblotting, first subjected to immunoprecipitation with an anti-KLF4 antibody. Immunocomplexes were detected with enhanced chemiluminescence (ECL; PerkinElmer Life Sciences).

[3] = system: p53 promoter; test: p53 promoter-Luc reporter assay in MCF-7 cells; type: cell-based, human; conditions: −2400-p53-Luc, 0.5 μg MUC1-CD, increasing amounts of KLF4
Experimental: FIG. 4B is a pair of bar graphs. MCF-7 (left bar graph) or ZR-75-1 (right bar graph) cells were transfected with the −2400-p53-Luc reporter, the indicated amounts (0, 0.5, or 1 μg) of KLF4, 0.5 μg MUC1-CD and an internal control LacZ expression plasmid (pCMV-LacZ). At 40 hours after transfection, the cells were assayed for luciferase activity (as described above). The Y-axis represents the relative luciferase activity expressed as the fold activation (mean±SD of 3 separate experiments) compared to that obtained with empty vector-transfected cells (assigned a value of 1).
Transfection and reporter assays. Transfections were performed in 60 mm dishes using Fugene-6 (Roche Applied Science) or, for the luciferase assays, in 24 well plates using the calcium phosphate method (Invitrogen). Cells were transfected with the −2400-p53-Luc reporter, −2400-PE21-MUT-Luc reporter, −320-p53-Luc reporter, −320-PE21-MUT-Luc reporter (Rowland et al. (2005) Nat. Cell Biol. 7: 1074-1082) and an internal control LacZ expression plasmid (pCMV-LacZ) (Wei et al. (2001) J. Biol. Chem. 276: 16107-16112). Luciferase assays were performed with the Luciferase Assay System (Promega Corporation, Madison, Wis.) at 40 hours after transfection. Luciferase activity was normalized to that obtained for LacZ and presented as relative luciferase activity. […]

[4] = system: p53 promoter; test: p53 promoter-Luc reporter assay in ZR-75-1 cells; type: cell-based, human
Experimental: FIG. 4A is a bar graph (left) and a series of photographs of western blots (right) depicting the suppression of p53 gene transcription by MUC1. Bar graph, Left: ZR-75-1/MUC1siRNA cells were transfected with the −2400-p53-Luc reporter or the −320-p53-Luc reporter construct. The X-axis indicates the amount of MUC1-CD DNA (and a control LacZ expression plasmid) in μg (“μg MUC1-CD) also transfected into each cell. the indicated amounts of MUC1-CD. At 40 h after transfection, lysates were prepared from the transfected cells and assayed for luciferase activity. The Y-axis represents the relative luciferase activity expressed as fold activation (mean±SD of 3 separate experiments) compared to that obtained with empty vector-transfected cells (assigned a value of 1). Western blots, right: ZR-75-1/MUC1siRNA cells were transfected with the indicated amounts (in μg) of pCMV or pCMV-MUC1-CD vectors. At 24 hours after transfection, lysates from the indicated ZR-75-1/MUC1siRNA cells were immunoblotted (“IB”) with antibodies specific for p53, MUC1-C, or β-actin (as indicated below each photograph). […]
FIG. 4B is a pair of bar graphs. […] The Y-axis represents the relative luciferase activity expressed as the fold activation (mean±SD of 3 separate experiments) compared to that obtained with empty vector-transfected cells (assigned a value of 1). […]

Molecule | binding of [35S]-labeled KLF4 to GST fusion protein [1] | p53 levels (immunoblot) [2] | effect on KLF4-mediated suppression of p53 transcription (luciferase) [3] | p53 gene transcription (luciferase activity) ([4]; ZR-75-1/MUC1siRNA cells, −2400-p53-Luc or −320-p53-Luc, 40 h after transfection) | effect on KLF4-mediated suppression of p53 transcription (luciferase) ([4]; ZR-75-1 cells, −2400-p53-Luc, 0.5 μg MUC1-CD, increasing amounts of KLF4)
MUC1-CD(47-72): GST fusion of MUC1-CD deletion fragment, amino acids 47-72 (EKVSAGNGGSSLSYTNPAVAAASANL; also: GST fusion (side not given here); listed as Homo sapiens) | not |  |  |  | 
B1 | binds |  |  |  | 
B2 |  | downregulates p53 levels | potentiates KLF4-mediated suppression of p53 transcription | suppresses p53 gene transcription | potentiates KLF4-mediated suppression of p53 transcription
